Columns and labels:
Assay in all cases: phosphate release, molybdate assay, A820
YqeG = target: T1, YqeG (Bacillus subtilis, UniProt P54452); type: biochemical; details: 10 mM substrate, 12 h, 50 mM Tris-HCl pH 7.8, 10 mM MgCl2, 250 mM KCl, 1 mM NH4Cl, 37 °C
T1 construct: gene pgpP; full-length ORF, C-terminal His6 (pET28b, NdeI/HindIII), expressed in E. coli BL21(DE3), TALON purified

AraL = target: T2, AraL (Bacillus subtilis, UniProt P94526); type: biochemical; details: 10 mM substrate, 12 h, 50 mM Tris-HCl pH 7.8, 10 mM MgCl2, 250 mM KCl, 1 mM NH4Cl, 37 °C
T2 construct: full-length ORF, C-terminal His6 (pET28b, NdeI/XhoI), expressed in E. coli BL21(DE3), TALON purified
T2 sequence (P94526 whole entry): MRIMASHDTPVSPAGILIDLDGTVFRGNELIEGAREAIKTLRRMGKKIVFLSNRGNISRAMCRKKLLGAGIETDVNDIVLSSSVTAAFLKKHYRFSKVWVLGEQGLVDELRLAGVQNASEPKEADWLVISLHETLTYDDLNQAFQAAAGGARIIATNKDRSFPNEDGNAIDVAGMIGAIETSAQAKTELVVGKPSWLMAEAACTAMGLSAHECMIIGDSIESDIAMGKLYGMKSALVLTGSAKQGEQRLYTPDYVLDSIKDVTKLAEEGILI

[1] = substrate: Nc1ccn([C@@H]2O[C@H](COP(=O)(O)O)[C@@H](O)[C@H]2O)c(=O)n1; type: biochemical, Bacillus subtilis; details: 50 mM Tris-HCl pH 7.8, 10 mM MgCl2, 250 mM KCl, 1 mM NH4Cl, 37 °C
[2] = substrate: Nc1nc2c(ncn2[C@@H]2O[C@H](COP(=O)(O)O)[C@@H](O)[C@H]2O)c(=O)[nH]1; type: biochemical, Bacillus subtilis; details: 50 mM Tris-HCl pH 7.8, 10 mM MgCl2, 250 mM KCl, 1 mM NH4Cl, 37 °C
[3] = substrate: Nc1ncnc2c1ncn2[C@@H]1O[C@H](COP(=O)(O)O)[C@@H](O)[C@H]1O; type: biochemical, Bacillus subtilis; details: 50 mM Tris-HCl pH 7.8, 10 mM MgCl2, 250 mM KCl, 1 mM NH4Cl, 37 °C
[4] = substrate: O=c1ccn([C@@H]2O[C@H](COP(=O)(O)O)[C@@H](O)[C@H]2O)c(=O)[nH]1; type: biochemical, Bacillus subtilis; details: 50 mM Tris-HCl pH 7.8, 10 mM MgCl2, 250 mM KCl, 1 mM NH4Cl, 37 °C
[5] = substrate: O=P(O)(O)OC(CO)CO; type: biochemical, Bacillus subtilis; details: 50 mM Tris-HCl pH 7.8, 10 mM MgCl2, 250 mM KCl, 1 mM NH4Cl, 37 °C

T1 sequence (P54452 whole entry): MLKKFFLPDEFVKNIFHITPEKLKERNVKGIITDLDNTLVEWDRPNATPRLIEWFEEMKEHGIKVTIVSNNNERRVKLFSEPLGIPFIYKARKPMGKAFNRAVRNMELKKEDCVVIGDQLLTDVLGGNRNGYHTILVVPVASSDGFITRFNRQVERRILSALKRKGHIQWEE

For `Nc1nc2c(ncn2[C@@H]2O[C@H](COP(=O)(O)O)[C@@H](O)[C@H]2O)c(=O)[nH]1` [GMP], the “phosphate release, molybdate assay, A820” value (YqeG) was “YqeG hydrolyzed GMP and G6P only at the higher concentration”.

With `O=P(O)(O)OC[C@H]1OC(O)[C@H](O)[C@@H](O)[C@@H]1O` (some centres unmarked) [G6P] the “phosphate release, molybdate assay, A820” value (YqeG) was “YqeG hydrolyzed GMP and G6P only at the higher concentration” and the “phosphate release, molybdate assay, A820” value (AraL) was “AraL activity was enhanced particularly against G6P at the higher concentration”.

B1: YcsE (Bacillus subtilis subsp. subtilis str. 168) (protein)
chain: MSVQREDVDIKLIAIDMDGTLLNDEQLISDENRKAIREAEDKGVYVVISTGRTLMTCRELAESLKLSSFLITANGSEIWDSNFNLVERKLLHTDHIQMMWDLRNKHNTNFWASTVNKVWRGEFPENITDHEWLKFGFDIEDDDIRNEVLEELRKNKELEITNSSPTNIEVNALGINKAAALAKVTEKLGFTMENVMAMGDSLNDIAMIKEAGLGVAMGNAQDIVKETADYITDTNIEDGVAKAIRHWVL
notes: full-length ORF, C-terminal His6 (pET28b, NdeI/XhoI), expressed in E. coli BL21(DE3), TALON purified
B1 gave a Km [1] of 4.7 ± 0.23 mM, a Km [2] of 10.3 ± 0.12 mM and a Km [3] of 8.6 ± 0.80 mM. It also gave a Km [4] of 8.5 ± 0.69 mM.

B2: YktC (Bacillus subtilis subsp. subtilis str. 168) (protein)
chain: MTNWTEIDEIAKKWIREAGARITQSMHESLTIETKSNPNDLVTNIDKETEKFFIDRIQETFPGHRILGEEGQGDKIHSLEGVVWIIDPIDGTMNFVHQQRNFAISIGIFENGEGKIGLIYDVVHDELYHAFSGRGAYMNETKLAPLKETVIEEAILAINATWVTENRRIDQSVLAPLVKRVRGTRSYGSAALELANVAAGRIDAYITMRLAPWDYAAGCVLLNEVGGTYTTIEGEPFTFLENHSVLAGNPSIHKTIFEEYLHARK
notes: full-length ORF, C-terminal His6 (pET28b, BamHI/HindIII), expressed in E. coli BL21(DE3), TALON purified
Molecule B2 has a Km [1] of 1.6 ± 0.017 mM, a Km [2] of 1.9 ± 0.026 mM and a Km [5] of 0.49 ± 0.035 mM. For the same molecule, the Km [4] was 2.4 ± 0.052 mM.
